This passage reports WAF1 mRNA level in HT1080 cells (Northern blot) results from patent publication US20030073084A1.

The test concerns the target wild type p53 (human cells) (human) (UniProt P04637). In words: cell-based or functional assay.

Substance “p28^ING1 (alternative splice variant of human ING1)” displayed a WAF1 mRNA level in HT1080 cells (Northern blot) of 4 to 6 times.
